Measurements taken from patent US20030113828A1, “Compositions and methods for modulating Syk function” (priority 2001, published 2003).
Like-named read-outs stand apart in the source and are kept apart here. Square brackets hold non-standard residues; d marks the D form. Ends that are not written are not given here. Peptide text beside a SMILES is read from it. pY = N[C@@H](Cc1ccc(OP(=O)(O)O)cc1)C(=O)O

Key:
Syk(6-370) = Syk(6-370) (Homo sapiens, UniProt P43405); conditions: Ottinger et al. 1998, cited from earlier work
Syk [1] = molecular target: T1, Syk (Homo sapiens, UniProt P43405); test: Syk kinase activation in vitro; assay type: biochemical
[2] = molecular target: T2, binding of Syk(6-370) to the β3 tail (Homo sapiens, UniProt P43405); test: pITAM peptide competition in direct binding assay; conditions: soluble pITAM peptide 40 μM, 8000-fold molar excess
T2 construct: made in house; host or cells: bacteria (pGEX vector, IPTG induction)
Experimental: To verify that the Syk-β3 interaction is pITAM-independent mechanism, the effect of 8000-fold molar excess of PITAM peptides on binding of Syk(6-370) to the β3 tail was examined. […] Similar data were obtained in a quantitative enzyme-linked immunosorbent assay. The FcεRIγ pITAM peptides were functional, as they activated Syk kinase (EC50 1-2 μM) in vitro (Shiue et al.(1995) J Biol Chem 270:10498-10502). Thus, Syk recognition of β3 involves a unique specificity, distinct from Syk's interaction with pITAMs.
(§1) Following incubation, beads were washed and bound protein was analyzed by immunoblotting.

[3] = molecular target: T3, integrin β3 cytoplasmic tail (Homo sapiens, UniProt P05106); test: Affinity chromatography/direct binding of kinase fragments to integrin tail; conditions: recombinant fragments, direct binding assay
T3 construct: made in house
T3 sequence (P05106 742-788 limits assumed): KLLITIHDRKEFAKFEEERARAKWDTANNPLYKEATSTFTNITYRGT
Experimental: as §1
(§2) For direct binding assays, model peptides (1 mg) were dissolved in 1 ml buffer containing 20 mM Tris (pH 7.9), 500 mM NaCl, and 6 M urea. To this, 50 ul packed His-Bind® Resin (Novagen, Madison, Wis.) was added and the mixture was rotated for 1 hour at room temperature. Immobilized peptides were washed 5× in above buffer without urea, and resuspended in 500 μl buffer containing 20 mM PIPES pH 6.8, 50 mM NaCl, 3 mM MgCl2, 150 mM sucrose, 50 mM NaF, 40 mM Na4P2O7*10H2O (buffer A) supplemented with 0.1% TritonX-100 and 3 mM MgCl2. Purified GST-fusion proteins were added to 0.5 ml buffer A supplemented with 0.1% TritonX-100 and 3 mM MgCl2. Five μl of total packed resin loaded with various integrin cytoplasmic domain model proteins was added to the GST-fusion protein. The mixture was incubated for 40 minutes at room temperature with continuous rotation. The beads were then washed five times in buffer A with 0.1% TritonX-100 and 3 mM MgCl2. Bound proteins were eluted by boiling in reducing sample buffer, fractionated by SDS PAGE, and immuno-blotted.

Syk [4] = molecular target: T1, Syk; test: Affinity chromatography/direct binding of integrin tail model proteins to Syk; design: made in house; host or cells: bacteria (pGEX vector, IPTG induction)
Experimental: (§3) Model protein mimics of integrin cytoplasmic domains αIIb, β1A, and β3 were prepared in accordance with procedures described by Pfaff et al. (1998) J Biol Chem 273:6104-6109). The β2 integrin cytoplasmic domain model protein was developed by PCR amplification of β2 cDNA using 5′-[…] (SEQ ID NO:7) and 3′-[…] (SEQ ID NO:8) primers. This primer set introduced a 5′ HindIII restriction site into the N-terminal region of the β2 cytoplasmic domain, resulting in the mutation, A725L. The 3′ primer contained a BamHI restriction site immediately downstream of dual stop codons. The PCR product was cloned into pCR2.1 as described in the TA Cloning® system (Invitrogen, Carlsbad, Calif.). After sequencing, pCR2.1-β2cyt was digested with BamHI and HindIII, and subcloned into a modified bacterial expression plasmid pET15bm (lacking the HindIII restriction site). All model proteins were verified by sequence analysis, expressed, HPLC purified and verified by electrospray ionization mass spectroscopy as described by Pfaff et al. ((1998) J Biol Chem 273:6104-6109).
as §1, §2

Zap-70 [5] = molecular target: T4, Zap-70 (Homo sapiens, UniProt P43403); test: Affinity chromatography/direct binding of integrin tail model proteins to Zap-70; conditions: recombinant fragment, direct binding
T4 construct: A cDNA encoding residues 1-337 of human Zap-70 was cloned into pGEX-2T; made in house; host or cells: bacteria (pGEX-2T, IPTG induction)
T4 sequence (P43403 1-337): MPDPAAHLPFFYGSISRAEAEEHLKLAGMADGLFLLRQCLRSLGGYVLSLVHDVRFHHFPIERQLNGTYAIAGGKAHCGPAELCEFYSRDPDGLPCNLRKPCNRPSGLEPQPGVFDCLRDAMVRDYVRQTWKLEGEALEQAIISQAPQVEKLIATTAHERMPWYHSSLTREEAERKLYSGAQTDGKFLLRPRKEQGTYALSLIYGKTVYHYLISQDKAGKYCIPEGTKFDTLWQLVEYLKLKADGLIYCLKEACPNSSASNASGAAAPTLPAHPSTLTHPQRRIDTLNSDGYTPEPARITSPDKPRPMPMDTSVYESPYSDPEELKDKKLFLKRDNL
Experimental: (§4) A cDNA encoding residues 1-337 of human Zap-70 was cloned into pGEX-2T (Amersham Pharmacia Biotech).
as §3, §1
as §2, with “The beads were then washed five times in buffer A with 0.1% TritonX-100 and 3 mM MgCl2. Bound proteins were eluted by boiling in reducing sample buffer, fractionated by SDS PAGE, and immuno-blotted.” left out

Zap-70 [6] = test: as above; design: species or system human; conditions: Zap-70 from cell lysates
Experimental: as §4, §3, §1
as §2, with “The beads were then washed five times in buffer A with 0.1% TritonX-100 and 3 mM MgCl2. Bound proteins were eluted by boiling in reducing sample buffer, fractionated by SDS PAGE, and immuno-blotted.” left out

[7] = molecular target: T5, Syk binding to the β3 tail model proteins (Homo sapiens, UniProt P43405); test: β3 peptide competition in direct binding assay; conditions: peptide 1×10^−4 M, Syk 5×10^−9 M
T5 construct: made in house; host or cells: bacteria (pGEX vector, IPTG induction)
Experimental: Phosphorylation of the β3 integrin cytoplasmic domain occurs as a consequence of integrin engagement (Law et al. (1996) J Biol Chem 271:10811-10815). To determine if phosphorylation of the β3 cytoplasmic domain could affect Syk binding, competition assays were performed using tyrosine phosphorylated or non-phosphorylated peptides in the context of the last 23 amino acids of the β3 cytoplasmic domain. Peptides were used at a concentration 1×10^−4 M, and Syk was used at a concentration of 5×10^−9 M. The non-phosphorylated peptide competed for integrin β3 tail binding to Syk. In three experiments, there was a 52±3.4% decrease in Syk binding to the β3 tail model proteins in the presence of non-phosphorylated β3-23 peptide as compared to the phosphorylated peptide (β3-23P). […] Furthermore, phosphorylation of β3(Y747,759) reduces its capacity to compete for Syk binding to the unphosphorylated β3 tail.
as §2, with “The beads were then washed five times in buffer A with 0.1% TritonX-100 and 3 mM MgCl2. Bound proteins were eluted by boiling in reducing sample buffer, fractionated by SDS PAGE, and immuno-blotted.” left out
For peptide competition assays, peptides were pre-incubated with Syk(6-370) for one hour before direct binding assays were performed. Peptides were used at a concentration of 1×10^−4 M, and Syk(6-370) was used at a concentration of 2×10^−9 M. Bound Syk was detected as described above. […]

[8] = recombinant fragment, direct binding

CC(C)C[C@H](NC(=O)CNC(=O)[C@@H](NC(=O)[C@H](Cc1ccc(OP(=O)(O)O)cc1)NC(=O)[C@@H](NC(=O)CNC(=O)[C@@H](N)CC(=O)O)C(C)C)[C@@H](C)O)C(=O)N[C@@H](CO)C(=O)N[C@H](C(=O)N[C@@H](CCCNC(=N)N)C(=O)N[C@@H](CC(N)=O)C(=O)N[C@@H](CCC(N)=O)C(=O)N[C@@H](CCC(=O)O)C(=O)N[C@H](C(=O)N[C@@H](Cc1ccc(OP(=O)(O)O)cc1)C(=O)N[C@@H](CCC(=O)O)C(=O)N[C@H](C(=O)N[C@@H](CC(C)C)C(=O)N[C@@H](CCCCN)C(=O)N[C@H](C(=O)N[C@@H](CS)C(=O)N[C@@H](CCCNC(=N)N)C(=O)O)[C@@H](C)O)[C@@H](C)O)[C@@H](C)O)[C@@H](C)O [FcεRIγ ITAM peptide, DGVY(PO3)TGLSTRNQETY(PO3)ETLKTCR (SEQ ID NO:1)] (H-DGV[pY]TGLSTRNQET[pY]ETLKTCR-OH)
Kd (Syk(6-370); read-out: affinity of Syk for the dually phosphorylated FcεRIγ-ITAM): 2.6 nM | Kd (Syk(6-370); reported, read-out: Kd for the interaction between Syk(6-370) and the FcεRIγ pITAM peptide): 2.6 nM | EC50 (Syk [1]): 1000 to 2000 nM

NQLY(PO3)NELNLGRREEY(PO3)DVLV (SEQ ID NO:2) (NQL[pY]NELNLGRREE[pY]DVLV) [dually-phosphorylated TCRξ chain ITAM peptide]
competition with the β3 integrin cytoplasmic tail for binding to Syk(6-370) [2]: failed to compete

Syk(163-270): Syk fragment containing only the C-terminal SH2 domain
binding to the β3 tail [3]: failed to bind

Syk(R195A): C-terminal SH2 domain mutant of Syk deficient in binding to pITAMs
binding to the β3 tail [3]: bound

Zap-70(1-162): N-terminal SH2 domain of Zap-70 with its intact IA domain
binding to the β3 tail [3]: bound β3 to a similar extent as the tandem SH2 domains

tandem SH2 domains of SHP-2: tandem SH2 domains of SHP-2
binding to the β3 tail [3]: did not bind

αIIb tail: αIIb integrin cytoplasmic tail model protein (KVGFFKRNRPPLEEDDEEGE; not fully specified)
binding of Syk to integrin tail model protein (Syk [4]; Syk from cell lysates): no detectable binding | binding of Syk to integrin tail model protein (Syk [4]; [8]): No binding was detected | binding of Zap-70 to integrin tail model protein (Zap-70 [5]): No binding was detected | binding of Zap-70 to integrin tail model protein (Zap-70 [6]): no detectable binding

β3(759X): β3 tail with deletion of the last 4 C-terminal residues (KLLITIHDRKEFAKFEEERARAKWDTANNPLYKEATSTFTNIT; not fully specified)
binding of Syk to integrin tail model protein (Syk [4]; [8]): abolished

β3-23 peptide: non-phosphorylated peptide of the last 23 amino acids of the β3 cytoplasmic domain (DTANNPLYKEATSTFTNITYRGT)
competition for integrin β3 tail binding to Syk [7]: competed | decrease in Syk binding to the β3 tail model proteins ([7]; three experiments, compared to the phosphorylated peptide (β3-23P)): 52±3.4%

β3-23P: tyrosine phosphorylated peptide of the last 23 amino acids of the β3 cytoplasmic domain (DTANNPLYKEATSTFTNITYRGT; also: tyrosine phosphorylated, site not given here) [reference compound]
competition for integrin β3 tail binding to Syk [7]: did not detectably compete

β3: recombinant model protein mimic of dimerized integrin β3 cytoplasmic tail (KLLITIHDRKEFAKFEEERARAKWDTANNPLYKEATSTFTNITYRGT; also: dimerised via Fc or GST (left off))
binding of Syk to integrin tail model protein (Syk [4]; Syk from cell lysates): bound | binding of Zap-70 to integrin tail model protein (Zap-70 [6]): bound

β3752X: β3 tail with removal of 11 C-terminal residues Thr752-Thr762 (KLLITIHDRKEFAKFEEERARAKWDTANNPLYKEAT; not fully specified)
binding of Syk to integrin tail model protein (Syk [4]; [8]): abolished
